Source: the nanobody polyreactivity screen of Harvey et al. (2022)

Experiment: yeast display, Sf9 membrane polyspecificity reagent, FACS + sequencing; frameworks hold sequencing errors
Outline: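 Genes from sorted yeast were amplified by colony PCR, read by MiSeq 2 × 250 sequencing and filtered on CDR length. These cells carried a synthetic nanobody library in Saccharomyces cerevisiae BJ5465 and were sorted by FACS into low and high (top ~1%) gates on anti-HA and streptavidin fluorescence. Polyreactivity is labelled according to the gate of origin.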

Sequence | polyreactivity (PSR sort gate)
QVQLVESGGGLVQAGGSLRFSCAASGRIFTVNAMGWDRQARGKERELVASITGRGTRTYYADSVKGRFTISRDNAKNTVYLQMNSLKPEDTAVYYCAARAVKQYGNSYDYWGQGTQVTVSS | high polyreactivity
QVQLVESVGGLVQAGASLRLSCAASGITFVYYALGWYRQAPGKERELVAAITSTGGSTYYADSVKGRFTISRDNAKNTVYLQMNSLKPEDTSVYYCAAVPRGTQGAMDYWGQGTQVTVSS | low polyreactivity
QVQLVESGGGLVQAGGSLRLSCAASGGTFWSYAMGLYRQAPGKEREFVAAITTSAGRTNFADSVKGRFTISRDNAKNTFYLQMNSLKPEDTAVYYCAARSAYPGLGYGFDYWGQGTQVTVSS | low polyreactivity
QVQLQESGGGLVQAGGSPRLSCAASDNIFPDSVRCWYRQAPGKERELVATIGFGATTNYADSVKGRFTISRDNAKNTVYLQMNSLKPEDTAVYYCAADPLNYEYFCYWGQGTQVTVSS | low polyreactivity
QVQLVESGGGLVQAGGSLRLSCAAYGRIFAYYTMGWYRQAPGKERELVAAINQSGGSTYYADSVKGRFTISRDNAKNTVYFQMNSLKPEDTAVYYCAAKPYSLYARRYAYDYWGQGTQVTVSS | low polyreactivity
QVQLVESGGGLVQAGGSLRLSCAASGSIFNYNAMGWYRQAPGKERELVATINKRAGRTYYADSVKGRFTISRDNAKNTVYLQMNSLKPEDTAVYYCAALHSGRVQNFDYWGQGTQVTVSS | high polyreactivity
QVQLVESGGALVQAGGSLRLSCAASGRTFYPNAMGGYRQAPGKERELVAGSSYGTGSTYYADSVKGRFTISRDNAKNTVYLQMNSLKAEDNAVYYCAADNWAVNAYYWYIYDYWGQGTQVTVSS | low polyreactivity
QVQLVESGGCLVQAGGSLRLSCAASGSTFTGYAMGWYRQAPGKEREFVATITKRGGRTYYADSVKGRFTISRDHAKNTVYLQMNSLKPEDTAVYYCARDQGKLVVPYDYWGQGTQVTVSS | high polyreactivity
QVQLVESGGGLVQAGGSLRLSCAASGSTFNPYTMGWPRQAPGKERELVATITRIGGSTYYADSVKGRFTISRDNAKNTVDLQMNSLKPEDNAVYYCAADHYRSVRWRSDYTYRVNYWGQGTQVTVSS | high polyreactivity
QVQLVESGGGLVQAGGSLRLSCAASGSTFGAYAMGWYRQAPGKERELVAAISSSGGRTYYADSVKGRFTISRDNAKNTVYLQMNSLKPEDTAVYYCATYYRHYDLLYYYWGQGTQVTVSS | high polyreactivity
QVQLVESGGGLVQAGGSLRLSCAASGRIFPEYAMGWYRQAPGKERELVAAISSGDNTTYADSVKGRFTISRDNAKNTVYLQMNSLIPEDTAVYYCNAGSCTTGQGGPIIEYGYWGQGTQVTVSS | low polyreactivity
QVQLVESCGGLVQAGGSLRLSCAASGSTFYRNAMGWYRQAPGKEREFVAAISFRGGGTYADSVKGRFTISRDNAKNTVYLQMNSLKPEDTAVYYCAADHLSYRRRYEYWGQGTQVTVSS | low polyreactivity
QVQLVESGGGLVQAGGSLSLSCAASGIIFGSYAMGWYRQAPGKESELVAAITSRGSSTRYADSVKGRFTISRDNAKNTVYLQMNSLKPEDTAVYYCATKVVVAHLPGYYYWGQGTQVTVSS | high polyreactivity
QVQLVESGGGLVQAGGSLRLSCAASGSTFALYTMGWYRQAPGKERELVAGITIDGSTNYADSVKGRFTISRDNAKNTVYLQMNSLKPEDTAVYYCNADSYKYPLLKYRSDYWGQGTQVTVSS | low polyreactivity
QVQLVETGGGLVQAGGSLRLSCADSGSICEQYTMGWYRQAPGKERELVAGSSSGGITNYADSVKGRFTISRDNAKNTVYLQMNSLKPEDTAVYYCAADNWYLAEYDYWGEGTQVTVSS | low polyreactivity
QVQLVESGGGLVQAGGSLRLSCAAYGPTFRYNTMGWNRQAPGKERELDARITWSGGSTYYADSVKGRFTISRDNAKNTVYLQMNSLKPEDTAVYYCAAVPILVYRWFQSYTGDYDYWGQGTHVTVSS | low polyreactivity
QVQLVDSGGGLVQAGGSLRLSCAASGITFWSYAMGWYRPAPGKERELVAGISRRGGSTYYADSVKGRFTISRDNAKNTVYLQMNSLKPEDTAVYYCAARAYPTPVRSFLYTDIVYYWGQGTQVTVSS | high polyreactivity
QVQLVESGGGLVQAGGSLRLSCAASGFIFNYYTMGWYRQAPGKEREFVAAIRRSGTRTYYADSVKGRFTISRDNAKNTVYLQMNSLKPEDTAVYYCAARGTSPGHGTYTRTRGQRYYYWGQGTQVTVSS | high polyreactivity
QVQLVESGGGLVQAGGSLSLSCAASGRIFRRYAMGWYRQAPWKERELVAAITWSGGSTYADSVKGRFTISRDNAKNTVYLQMNSLKPEDTAVYYCAARYVTTKGSFVVGYGYWGQGTQVTVSS | high polyreactivity
QVQLVESGGGLVQAGGSLRLSCAASGRIFAYNTMGWYRQAHGKEREFVAVITSGGSTNYADSVKGRFTISRDNAKNTVFLLLNSLKPEDTAVYYCAKRPYGRSGGSRYDYWGQGTKVTVSS | high polyreactivity
QVQLVESGGGLVQAGGSLRLSCAASGNIFFRNARGWYRQAPGKERELVAAITWSGGSTYYADSVKGRFTISRDNAKNTVFLQMNSLKPEDTAVYYCAADAGQYFTYSGDDNLDYWGQGTQVTVSS | low polyreactivity
QFQLVESGGGLDQAGGSLRLSCAASGRTFAYYALGWYRQAPGKESELVAAISSGGGSTYYADSVKGRFTISRDNAKYTFYLQMNSLKPEDTAVYYCAKERSSSRSGGTYYYWGQGTQVTVSS | high polyreactivity

Sequence | polyreactivity (PSR sort gate)
QVQVVESGGGLVQAGGSLRLSCAASGFTFILYAMGWYRQAPGKERELVAAISWSGGRTYYADSVKGRFTISRDNAKNTVYLQMNSLKPEDTAVYYCNAPYWTSKSRFDYWGQGTQVTVSS | low polyreactivity
QVQLVESGGGLVQAGGSLRLISAASGRTFYSNAMGWYRQAPGKERELVAAITKSGGRTYYADSVKGRFTISRDNAKNTDYLQMNSLIPEDTAVYYCKALVAAYYGYDYWGQGTQVTVSS | high polyreactivity
QVQLQESGGGQVQAGGSLRLSCAASGTIFLYAFMAWYRQAPGKEPKLVAAIDVGTTTKYADSVKGRFTISRDNAKNTVYLQMNSLKPEDTAVYYCAAYLCYLDDLGYWGQGTQVTVSS | low polyreactivity
QVQLVESGGCLVQAGGSLRLSCAASGFTLTAYAMGWYRQAPGKEREFVAAISTSGTRTYYADSVKGRFTISRDNAKITVYLQMYSLKPDDTAVYYCAARYSGYQYWKFNYWGQGTQVTVSS | high polyreactivity
QVQLVESGGGLVKAGGSLRLSCAASGLILYRYVMGWYRQAPGKERELVAAISSSGGRTYYADSVKGRFTISRDIAKNTVYLQMNSMKPEDTAVYYCAKRRSDARRGYDYWGQGTQVTVSS | high polyreactivity
QVQLVESGGGLVQAGGSLRLSCAASGRIFDWYAMGWYRQAPGKERELVATISWSGGSTYYADSVKGRFTISRDNAKNTVYLQMNSLKPEDTAVYYCAADDYWRLYTWKFDYWGQGTQVTVSS | high polyreactivity
QVQLVESGGGLVQAGGSLRLSCAASGSIFRYYAMGWYRQAPGKERELVAAITSSAGSTYYADSVKGRFTISRDNAKNTVYLQMNSLKPEDTAVYYCNALVQGKEYYWGQGTQVTVSS | high polyreactivity
QVQLVESCGGLVQAGGSLRLSCAASGITYVYYAMGWYRQAPGKERELVAGITSGTSTYYADSVKGRFTISRDNAKNTVYLQINSLKPEDTAVYYCATGYRRGSTYGYWGQGTQVTVSS | low polyreactivity
QVQLVESGGGLVQAGGSLRLSCAASGSTFTLNAMGWYRQAPGKERELVADISWSSGRTYYADSVKGRFTISRDTEKNTVYLQMNSLKPEDTAVYYCATDDLSIVKFYAYYPEFDYWGQGTQVTVSS | low polyreactivity
QVQLVESGGGLVQGGGSLRLSCAASGLIFSYYAMGWYRQAPGKERELVAAISRGGATNYADSVKGRFTISRDTAKNTVYLQMNSLKPEDTAVYYCSARFVLRRDYGYWGQGTQVTVSS | high polyreactivity
QVKLVESGGGLVQAGGSLRLSCAASGIIFTFYSMGRYRQAPGKERELVAAITGSGGSTYYADSVKGRFTISRDNAKNSVYLQMNSLKPEDTAVYYCAADGPYGYYYGHYGYWGHGTQVTVSS | low polyreactivity
QVQLVESGGGLVQAGGSLRLSCGASGSTFDHYAMGWYRQAPGKERELVAAITRSGGSTYYADSVKGRFTISRDNAKNTVYIQMNSLKPEDTAVYYCNARRWITSDYWGQGTQVTVSS | high polyreactivity
QVQLVESGGGLVQAGGSLRLSCAASGSIFAVYAMGWYRQAPGKERELVASISRTGTTNYADSVKGRFTISRDNAKNTVYLQMNSLKPEDTAVYYCAADTWGLPDGYWYSEHPEFDYWGQGTQVTVSS | low polyreactivity
QVQLVESGGGLVQAGGSLRISCAASGSTFGYNGMGWYRQAPGKERELVAAISGGARTYADSVKGRFTISRDNAKNTVYLLMNSLKPEDTAVYYCAADSPVSVTADDVFWGQGTQVTVSS | low polyreactivity
QVQLVESGGGLVHAGGSLPLSCAASGRIFPGYAMRWYRQAPGKEREFVAAIRGTGTSTYYADSVKGRFTISRDNAKNTVYLQMNSLKPEDTAVYYCAASAGYAYNYWGQGTQVTVSS | low polyreactivity
QVQLVESGGGLVQAGGSLRLSCAASGSTFVRNAMGWYRQAPGKEREFVASISSTSGRTYYADSVKGRFTISRDNAKNTVYLQMNRLKPEDTAVYYCAADVPPKYRHRYTLYDYWGQGTQVTVSS | low polyreactivity
QVQLVESGGGLDQAGGSLRLSCAASGITFKSNAMGWYRQAPGKESELVAAISRRASSTYYADSVKGRFTISRDNAKHTVYLQMNSLKPEDTAVYYCNAVLPVYRTNMDYWGQGTQVTVSS | high polyreactivity
QDQHVESVGGLVQAGGSLRLSCAASGRTFYRYAMGWSRQAPGKEREFVAAISHGGSNTRYADSVKGRFTISRDNAKNTVYLQMKSLKPEDTAVYYCAARAYQHYNWGQGTQVTVSS | high polyreactivity
QVQLVESGGGLVQAGGSLRLSCAASGSIFVRNAMGWYRQAPGKERELVAAITYRGGSTYYADSVKGRFTISRDNAKNTVYLQMNSLKPEDTAVYYCAARYWQSYRSQVTHSSTLDYWGQGTQVTVSS | low polyreactivity
QVQLVESGGGLVQAGGSLRLSSAASGRTLASYAIGWYRQAPGQESELVAAISKRGGGTYYADSVKGRFTISRDNAKNTVYLQMNSLKPEDTAVYYCAKGTGYKPVVTTHPMDYWGQGTQVTVSS | high polyreactivity
QVQLVESGGGLVQAGGSLRLSCAASGRTFRTYAMGWYRQAPGKERELVASISVGGGSTYYADSVKGRFTISRDNAKNTVYLQMNSLKPEDTAVYYCAVRSYSPRSRGMGYWGQGTQVTVSS | high polyreactivity
